Measured values as given in US12365738B2, “Method of treating an interleukin-11-associated or -mediated fibrotic disease or condition by administering an anti-interleukin-11 receptor subunit alpha (IL-11RA) antibody” (Lassen Therapeutics, Inc., priority 2021, dated 2025).
Changes are numbered by the printed parent chain. Numbers in names are those of the source.

T1: hIL-11R (Homo sapiens, UniProt Q14626)
T1 sequence (Q14626 23-422): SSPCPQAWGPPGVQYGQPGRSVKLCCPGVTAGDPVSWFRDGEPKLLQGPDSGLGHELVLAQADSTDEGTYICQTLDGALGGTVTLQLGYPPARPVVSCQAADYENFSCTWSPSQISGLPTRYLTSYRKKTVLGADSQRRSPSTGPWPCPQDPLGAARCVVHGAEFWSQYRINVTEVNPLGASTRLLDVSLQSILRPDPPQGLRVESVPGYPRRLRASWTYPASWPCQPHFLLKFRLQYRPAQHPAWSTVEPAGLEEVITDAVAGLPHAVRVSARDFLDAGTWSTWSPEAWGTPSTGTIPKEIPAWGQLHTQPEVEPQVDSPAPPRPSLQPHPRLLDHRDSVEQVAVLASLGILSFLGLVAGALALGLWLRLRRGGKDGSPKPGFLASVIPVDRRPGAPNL

B1: mAb21: anti-IL-11Rα antibody, human IgG4 (S228P), kappa; VH SEQ ID NO: 233, VL SEQ ID NO: 234 (antibody, V domains shown)
VH: EVQLLESGGGLVQPGGSLRLSCAASGFTFSHYSMTWVRQAPGKGLEWVSSIVPYGDLTQYADSVKGRFTISRDNSKNTLYLQMNSLRAEDTAVYYCAKGPGWGSFDLWGRGTLVTVSS
VL: DIQMTQSPSSLSASVGDRVTITCQASQDINNYLNWYQQKPGKAPKLLIYDASNLQTGVPSRFSGSGSGTDFTFTISSLQPEDIATYYCQQHESQSPTFGPGTKVDIK
modifications: IgG4 S228P kappa constant regions; mAb21 VH Chain; mAb21 VL Chain
B2: mAb31: anti-IL-11Rα antibody, human IgG4 (S228P), kappa; VH SEQ ID NO: 253, VL SEQ ID NO: 254 (antibody, V domains shown)
VH: B1 VH with H31V
VL: B1 VL
modifications: IgG4 S228P kappa constant regions; mAb31 VH Chain; mAb31 VL Chain
B3: mAb28: anti-IL-11Rα antibody, human IgG4 (S228P), kappa; VH SEQ ID NO: 247, VL SEQ ID NO: 248 (antibody, V domains shown)
VH: B1 VH with H31R
VL: B1 VL
modifications: IgG4 S228P kappa constant regions; mAb28 VH Chain; mAb28 VL Chain
B4: mAb29: anti-IL-11Rα antibody, human IgG4 (S228P), kappa; VH SEQ ID NO: 249, VL SEQ ID NO: 250 (antibody, V domains shown)
VH: B1 VH with H31S
VL: B1 VL
modifications: IgG4 S228P kappa constant regions; mAb29 VH Chain; mAb29 VL Chain
B5: mAb18: anti-IL-11Rα antibody, human IgG4 (S228P), kappa; VH SEQ ID NO: 227, VL SEQ ID NO: 228 (antibody, V domains shown)
VH: B1 VH with H31E
VL: B1 VL
modifications: IgG4 S228P kappa constant regions; mAb18 VH Chain; mAb18 VL Chain
B6: mAb16: anti-IL-11Rα antibody, human IgG4 (S228P), kappa; VH SEQ ID NO: 223, VL SEQ ID NO: 224 (antibody, V domains shown)
VH: B1 VH with H31A
VL: B1 VL
modifications: IgG4 S228P kappa constant regions; mAb16 VH Chain; mAb16 VL Chain
B7: mAb17: anti-IL-11Rα antibody, human IgG4 (S228P), kappa; VH SEQ ID NO: 225, VL SEQ ID NO: 226 (antibody, V domains shown)
VH: B1 VH with H31D
VL: B1 VL
modifications: IgG4 S228P kappa constant regions; mAb17 VH Chain; mAb17 VL Chain
B8: mAb30: anti-IL-11Rα antibody, human IgG4 (S228P), kappa; VH SEQ ID NO: 251, VL SEQ ID NO: 252 (antibody, V domains shown)
VH: B1 VH with H31T
VL: B1 VL
modifications: IgG4 S228P kappa constant regions; mAb30 VH Chain; mAb30 VL Chain
B9: mAb19: anti-IL-11Rα antibody, human IgG4 (S228P), kappa; VH SEQ ID NO: 229, VL SEQ ID NO: 230 (antibody, V domains shown)
VH: B1 VH with H31F
VL: B1 VL
modifications: IgG4 S228P kappa constant regions; mAb19 VH Chain; mAb19 VL Chain
B10: mAb25: anti-IL-11Rα antibody, human IgG4 (S228P), kappa; VH SEQ ID NO: 241, VL SEQ ID NO: 242 (antibody, V domains shown)
VH: B1 VH with H31M
VL: B1 VL
modifications: IgG4 S228P kappa constant regions; mAb25 VH Chain; mAb25 VL Chain
B11: mAb24: anti-IL-11Rα antibody, human IgG4 (S228P), kappa; VH SEQ ID NO: 239, VL SEQ ID NO: 240 (antibody, V domains shown)
VH: B1 VH with H31L
VL: B1 VL
modifications: IgG4 S228P kappa constant regions; mAb24 VH Chain; mAb24 VL Chain
B12: mAb32: anti-IL-11Rα antibody, human IgG4 (S228P), kappa; VH SEQ ID NO: 255, VL SEQ ID NO: 256 (antibody, V domains shown)
VH: B1 VH with H31Y
VL: B1 VL
modifications: IgG4 S228P kappa constant regions; mAb32 VH Chain; mAb32 VL Chain
B13: mAb26: anti-IL-11Rα antibody, human IgG4 (S228P), kappa; VH SEQ ID NO: 243, VL SEQ ID NO: 244 (antibody, V domains shown)
VH: B1 VH with H31N
VL: B1 VL
modifications: IgG4 S228P kappa constant regions; mAb23 VH Chain; mAb26 VL Chaim
B14: mAb22: anti-IL-11Rα antibody, human IgG4 (S228P), kappa; VH SEQ ID NO: 235, VL SEQ ID NO: 236 (antibody, V domains shown)
VH: B1 VH with H31I
VL: B1 VL
modifications: IgG4 S228P kappa constant regions; mAb22 VH Chain; mAb22 VL Chain
B15: mAb23: anti-IL-11Rα antibody, human IgG4 (S228P), kappa; VH SEQ ID NO: 237, VL SEQ ID NO: 238 (antibody, V domains shown)
VH: B1 VH with H31K
VL: B1 VL
modifications: IgG4 S228P kappa constant regions; mAb23 VH Chain; mAb23 VL Chain
B16: mAb27: anti-IL-11Rα antibody, human IgG4 (S228P), kappa; VH SEQ ID NO: 245, VL SEQ ID NO: 246 (antibody, V domains shown)
VH: B1 VH with H31P
VL: B1 VL
modifications: IgG4 S228P kappa constant regions; mAb27 VH Chain; mAb27 VL Chain
B17: mAb20: anti-IL-11Rα antibody, human IgG4 (S228P), kappa; VH SEQ ID NO: 231, VL SEQ ID NO: 232 (antibody, V domains shown)
VH: B1 VH with H31G
VL: B1 VL
modifications: IgG4 S228P kappa constant regions; mAb20 VH Chain; mAb20 VL Chain

Target: T1, hIL-11R
Assay: Alternate biolayer interferometry assay (AHC biosensors) ranking mAbs 16-32 against mAb5
Format: binding
Settings: for ka / kd: AHC biosensors; for qualitative assessment: compared to mAb5 (comparator)
Description: A further series of antibodies were designed in which the residue at Kabat position 31 of the heavy chain was varied (mAbs 16-32). In this case an alternate biolayer interferometry assay was used to initially rank the antibodies compared to mAb5, the closest relative in sequence to mAbs 16-32. MAbs were loaded onto anti-human constant domain (AHC) biosensors (FortéBio) in 10×kinetics buffer consisting of PBS, 0.1% BSA, 0.02% polysorbate 20 (TWEEN™) for 120 s to achieve a spectral shift value of 0.8 to 1.2 nm. Association was carried out in the presence of 2-fold dilution series of hIL-11R and was allowed to proceed for 120 s. Dilution series started 10 nM. The dissociation in 10×kinetics buffer for 1200 s. Binding kinetic measurements were taken on an Octet RED96e instrument.

Row | Molecule | ka | kd | potency compared to mAb5 by more detailed kinetic measurements (in words) | qualitative assessment
1 | B1 | 750000 M⁻¹ s⁻¹ | off-scale | further improved potency | improved/
2 | B2 | 690000 M⁻¹ s⁻¹ | off-scale | further improved potency | improved/
3 | B3 |  |  |  | similar
4 | B4 | 610000 M⁻¹ s⁻¹ | 1.8e-05 s⁻¹ | further improved potency | improved/
5 | B5 |  |  |  | decreased
6 | B6 |  |  |  | similar
7 | B7 |  |  |  | decreased
8 | B8 |  |  |  | decreased
9 | B9 |  |  |  | similar
10 | B10 |  |  |  | similar
11 | B11 |  |  |  | similar
12 | B12 |  |  |  | similar
13 | B13 |  |  |  | decreased
14 | B14 |  |  |  | similar
15 | B15 | 720000 M⁻¹ s⁻¹ | off-scale | further improved potency | improved/
16 | B16 |  |  |  | decreased
17 | B17 |  |  |  | similar
